In the RNAGym collection of RNA variant scans (doi:10.1093/molbev/msab373):

B1: Azoarcus group I ribozyme (parent)
chain: GUGCCUUGCGCCGGGAAACCACGCAAGGGAUGGUGUCAAAUUCGGCGAAACCUAAGCGCCCGCCCGGGCGUAUGGCAACGCCGAGCCAAGCUUCGGCGCCUGCGCCGAUGAAGGUGUAGAGACUAGACGGCACCCACCUAAGGCAAACGCUAUGGUGAAGGCAUAGUCCAGGGAGUGGCGAAAGUCACACAAACCGG

Variants of: B1
Assay: reverse-splicing fitness (ratio to wild type); higher = more active; in vitro selection; Mg2+ level not given
How it was run: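 An in vitro group I ribozyme library with randomized positions was T7-transcribed and gel-purified. In triplicate, 10 pmol RNA in EPPS pH 7.5 was reacted with 50 pmoles of a 30-nt RNA substrate for 1 h at 37 °C across several added MgCl2 levels (1–48 mM), then stopped with EDTA. Products were reverse transcribed from a substrate-complementary primer, PCR-amplified and sequenced (HiSeq 4000). Fitness is a variant's read proportion after selection over that before, normalised to wild type.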

Going from C82A A111G A120U C169U U176A to C82A A111G A120U C169U U176G, the reverse-splicing fitness falls from 0.00447 to 0.00235.

Going from C82A A111G A120U C169U U176C to C82A A111G A145U C150U C169A U176C, the reverse-splicing fitness rises from 0.00427 to 0.0114.

Going from C82A A111G A145U C150U C169A U176A to C82A A111G A145U C150U C169A U176G, the reverse-splicing fitness falls from 0.0133 to 0.00665.

Compared with C82A A111G A145U C150G C169U, C82A A111G A145U C150G C169A is lower in reverse-splicing fitness: 0.00964 for the first, 0.00833 for the second.

First: C82A A111G A145U C150G C169G
Second: C82A A111G A120U A145U C150A U176G
The reverse-splicing fitness of the first is higher: 0.00749 for the first, 0.00197 for the second.

First: C82A A111G A145C C150G U176A
Second: C82A A111G A145C C150G U176G
The reverse-splicing fitness of the first is higher: 0.00908 for the first, 0.00447 for the second.

Compared with C82A A111G A145C C150G U176C, C82A A111G A145G C169G U176C is higher in reverse-splicing fitness: 0.0181 for the first, 0.0288 for the second.

First: C82A A111G A145G C169G U176A
Second: C82A A111G A145G C169G U176G
The reverse-splicing fitness of the first is higher: 0.0194 for the first, 0.00515 for the second.

Compared with C82A A111G A145U C150U C169G, C82A A111G A145U C150U C169A is higher in reverse-splicing fitness: 0.00926 for the first, 0.00951 for the second.

Going from C82A A111G A145U C150U C169U to C82A A111G A145U C169G U176G, the reverse-splicing fitness falls from 0.0118 to 0.00511.

First: C82A A111G A145U C169G U176A
Second: C82A A111G A145U C169G U176C
The reverse-splicing fitness of the first is lower: 0.011 for the first, 0.0131 for the second.

Going from C82A A111G A120U A145U C150G C169G U176G to C82A A111G A120U A145U C150G C169G U176A, the reverse-splicing fitness rises from 0.00259 to 0.00352.

First: C82A A111G A120U A145U C150G C169G U176C
Second: C82A A111G A145C C169U U176G
The reverse-splicing fitness of the first is lower: 0.00281 for the first, 0.00571 for the second.

First: C82A A111G A145C C169U U176A
Second: C82A A111G A145C C169U U176C
The reverse-splicing fitness of the first is higher: 0.013 for the first, 0.0113 for the second.

First: C82A A111G A120U C150U C169A
Second: C82A A111G A120U C150U C169G
The reverse-splicing fitness of the first is lower: 0.00487 for the first, 0.00566 for the second.

Going from C82A A111G A120U C150U C169U to C82A A111G C150G C169A, the reverse-splicing fitness rises from 0.0051 to 0.0102.

Compared with C82A A111G C150G C169G, C82A A111G C150G C169U is higher in reverse-splicing fitness: 0.00678 for the first, 0.0107 for the second.

First: C82A A111G A120U C150A C169A U176G
Second: C82A A111G A120U C150A C169A U176C
The reverse-splicing fitness of the first is lower: 0.00194 for the first, 0.00319 for the second.

Going from C82A A111G A120U C150A C169A U176A to C82A A111G A145C C150A C169G U176C, the reverse-splicing fitness rises from 0.00499 to 0.0145.

First: C82A A111G A145C C150A C169G U176G
Second: C82A A111G A145C C150A C169G U176A
The reverse-splicing fitness of the first is lower: 0.00722 for the first, 0.0291 for the second.

Compared with C82A A111G A145U C150A U176G, C82A A111G A145U C150A U176C is higher in reverse-splicing fitness: 0.0106 for the first, 0.03 for the second.

Compared with C82A A111G A145U C150A U176A, C82A A111G A145C U176C is higher in reverse-splicing fitness: 0.0241 for the first, 0.248 for the second.

Compared with C82A A111G A145C U176A, C82A A111G A145C U176G is lower in reverse-splicing fitness: 0.181 for the first, 0.0484 for the second.

Going from C82A A111G A145G C150U C169U to C82A A111G A145G C150U C169G, the reverse-splicing fitness falls from 0.0135 to 0.0102.

Going from C82A A111G A145G C150U C169A to C82A A111G A145G C169A U176G, the reverse-splicing fitness falls from 0.0115 to 0.00591.

Going from C82A A111G A145G C169A U176C to C82A A111G A145G C169A U176A, the reverse-splicing fitness falls from 0.0253 to 0.0201.

Compared with C82A A111G A145C C169U, C82A A111G A145C C169G is lower in reverse-splicing fitness: 0.0119 for the first, 0.00994 for the second.

First: C82A A111G A145C C169A
Second: C82A A111G A145C C150U C169A U176C
The reverse-splicing fitness of the first is higher: 0.0076 for the first, 0.00698 for the second.

Compared with C82A A111G A145C C150U C169A U176A, C82A A111G A145C C150U C169A U176G is lower in reverse-splicing fitness: 0.0133 for the first, 0.00703 for the second.

Going from C82A A111G A145U C169U U176A to C82A A111G A145U C169U U176C, the reverse-splicing fitness rises from 0.0124 to 0.0133.

Going from C82A A111G A145U C169U U176G to C82A A111G A145C C150U C169G U176A, the reverse-splicing fitness rises from 0.0055 to 0.0215.

First: C82A A111G A145C C150U C169G U176G
Second: C82A A111G A145C C150U C169G U176C
The reverse-splicing fitness of the first is lower: 0.00676 for the first, 0.0114 for the second.

Going from C82A A111G A145U C150U C169G U176C to C82A A111G A145U C150U C169G U176G, the reverse-splicing fitness falls from 0.015 to 0.00627.

Compared with C82A A111G A145U C150U C169G U176A, C82A A111G A145G C150A U176G is lower in reverse-splicing fitness: 0.0131 for the first, 0.0122 for the second.

First: C82A A111G A145G C150A U176C
Second: C82A A111G A145G C150A U176A
The reverse-splicing fitness of the first is higher: 0.0453 for the first, 0.0293 for the second.

Going from C82A A111G A145G U176C to C82A A111G A145G U176A, the reverse-splicing fitness falls from 0.245 to 0.184.

Going from C82A A111G A145G U176G to C82A A111G A120U C150A C169G U176C, the reverse-splicing fitness falls from 0.0444 to 0.00412.

First: C82A A111G A120U C150A C169G U176G
Second: C82A A111G A120U C150A C169G U176A
The reverse-splicing fitness of the first is lower: 0.00222 for the first, 0.00908 for the second.

Compared with C82A A111G C150A C169G U176G, C82A A111G C150A C169G U176A is higher in reverse-splicing fitness: 0.00691 for the first, 0.0221 for the second.

First: C82A A111G C150A C169G U176C
Second: C82A A111G A145U C150G
The reverse-splicing fitness of the first is lower: 0.0249 for the first, 0.0319 for the second.

Compared with C82A A111G A145U C150U, C82A A111G A145U C150A is lower in reverse-splicing fitness: 0.254 for the first, 0.0313 for the second.

Variant C82A A111G A145U C150G C169G U176G has a reverse-splicing fitness of 0.00584.
